The results in this text go back to patent US12269859B2, “Synthetic immune receptors and methods of use thereof” (Angeles Therapeutics, Inc., priority 2016, dated 2025).

The subject of the experiment is target antigen-expressing cell line. The experiment is described as follows: Jurkat NFAT-GFP assay, coculture with target cell lines expressing the respective target antigen (summary Table 10A). Format: cell-based, human. Details: key: The signs +/−, +, 2+ etc. after the name of the cell lines indicate the relative degree of positivity on the Jurkat-NFAT-GFP assay as measured by the % GFP positive cells; +: relative degree of positivity on the Jurkat-NFAT-GFP assay as measured by the % GFP positive cells; 2+: relative degree of positivity on the Jurkat-NFAT-GFP assay as measured by the % GFP positive cells. Conditions: relative % GFP positive cells; for NFAT-GFP ASSAY Positive Cell lines: HEL: SIR-expressing Jurkat-NFAT-GFP cells cocultured with HEL; for NFAT-GFP ASSAY Positive Cell lines: RAJI: SIR-expressing Jurkat-NFAT-GFP cells cocultured with RAJI. A digest of the protocol: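 Jurkat cells carrying an NFAT-site IL-2 promoter driving GFP were lentivirally transduced with SIRs, puromycin-selected, then cocultured with antigen-expressing target cells at E:T about 1:2 for about 4–18 hours. GFP induction was read by flow cytometry as % GFP-positive cells versus parental Jurkat-NFAT-GFP.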

B1: 063016-E01 (protein)
chain: MALPVTALLLPLALLLHAARPDEIVLTQSPATLSLSPGERATLSCSASSSVSYMHWYQQKPGQAPRLLIYDTSKLASGIPARFSGSGSGTDFTLTISSLEPEDVAVYYCFQGSVYPFTFGQGTKLEIKRGGGGSGGGGSGGGGSQVQLQESGPGLVKPSQTLSLTCTVSGGSISTSGMGVGWIRQHPGKGLEWIGHIWWDDDKRYNPALKSRVTISVDTSKNQFSLKLSSVTAADTAVYYCARMELWSYYFDYWGQGTLVTVSSLEGKPIPNPLLGLDSTGSGEDLKNVFPPEVAVFEPSEAEISHTQKATLVCLATGFYPDHVELSWWVNGKEVHSGVCTDPQPLKEQPALNDSRYCLSSRLRVSATFWQNPRNHFRCQVQFYGLSENDEWTQDRAKPVTQIVSAEAWGRADCGFTSESYQQGVLSATILYEILLGKATLYAVLVSALVLMAMVKRKDSRGRAKRSGSGATNFSLLKQAGDVEENPGPTSATMALPVTALLLPLALLLHAARPDVQLQESGPGLVKPSQSLSLTCTVTGYSITSDYTWNWIRQFPGNKLEWMGYITYSGSTSYNPSLKSRNSITRDTSKNQFFLQLNSVTTEDTATYYCARLGRRYTMDYWGQGTSVTVSSGGGGSGGGGSGGGGSDIQMTQSSSSFSVSLGDRVTITCMASEDIYIRLAWYQQKPGNAPRLLISAATSLETGVPSRFSGSGSGKDYTLSITSLQTEDVGTYYCQQYWSSPWTFGGGTKLEINTREQKLISEEDGSGIQNPDPAVYQLRDSKSSDKSVCLFTDFDSQTNVSQSKDSDVYITDKCVLDMRSMDFKSNSAVAWSNKSDFACANAFNNSIIPEDTFFPSPESSCDVKLVEKSFETDTNLNFQNLSVIGFRILLLKVAGFNLLMTLRLWSSRAKRSGSGVKQTLNFDLLKLAGDVESNPGPSRGHMTEYKPTVRLATRDDVPRAVRTLAAAFADYPATRHTVDPDRHIERVTELQELFLTRVGLDIGKVWVADDGAAVAVWTTPESVEAGAVFAEIGPRMAELSGSRLAAQQQMEGLLAPHRPKEPAWFLATVGVSPDHQGKGLGSAVVLPGVEAAERAGVPAFLETSAPRNLPFYERLGFTVTADVEVPEGPRTWCMTRKPGA
modifications: Synthetic Immune Receptor (SIR)
As to B1, the “NFAT-GFP ASSAY Positive Cell lines: HEL” value is on record as “+/−” and the “NFAT-GFP ASSAY Positive Cell lines: RAJI” value is 2+.

B2: 010417-E08 (protein)
chain: MALPVTALLLPLALLLHAARPLEGKPIPNPLLGLDSTGSGEDLKNVFPPEVAVFEPSKAEIAHTQKATLVCLATGFYPDHVELSWWVNGKEVHSGVCTDPQPLKEQPALNDSRYCLSSRLRVSATFWQNPRNHFRCQVQFYGLSENDEWTQDRAKPVTQIVSAEAWGRADCGITSASYHQGVLSATILYEILLGKATLYAVLVSALVLMAMVKRKDSRGRAKRSGSGATNFSLLKQAGDVEENPGPTSTMALPVTALLLPLALLLHAARPDEIVLTQSPATLSLSPGERATLSCSASSSVSYMHWYQQKPGQAPRLLIYDTSKLASGIPARFSGSGSGTDFTLTISSLEPEDVAVYYCFQGSVYPFTFGQGTKLEIKRGGGGSGGGGSGGGGSQVQLQESGPGLVKPSQTLSLTCTVSGGSISTSGMGVGWIRQHPGKGLEWIGHIWWDDDKRYNPALKSRVTISVDTSKNQFSLKLSSVTAADTAVYYCARMELWSYYFDYWGQGTLVTVSSTREAAAKQIVLTQSPAIMSASPGEKVTISCSASSSVSYMYWYQQKPGSSPKPWIYRTSNLASGVPARFSGSGSGTSYSLTISNMEAEDAAAYYCQQYHSYPTTFGGGTKLEVKGGGGSGGGGSGGGGSEVQLVESGGGLVQPKGSLKLSCAASGFSFNTYAMNWVRQAPGKGLEWIAHIRSKSNNFATYYADSVKDRFSISRDASENILFLQMNNLKTEDTAMYYCVRQGGDFPMDYWGQGTSVTVSSTREQKLISEEDGSGIQNPDPAVYQLRDSKSSDKSVCLFTDFDSQTNVSQSKDSDVYITDKCVLDMRSMDFKSNSAVAWSNKSDFACANAFNNSIIPEDTFFPSSDVPCDVKLVEKSFETDTNLNFQNLSVIGFRILLLKVAGFNLLMTLRLWSSRAKRSGSGVKQTLNFDLLKLAGDVESNPGPSRGHMTEYKPTVRLATRDDVPRAVRTLAAAFADYPATRHTVDPDRHIERVTELQELFLTRVGLDIGKVWVADDGAAVAVWTTPESVEAGAVFAEIGPRMAELSGSRLAAQQQMEGLLAPHRPKEPAWFLATVGVSPDHQGKGLGSAVVLPGVEAAERAGVPAFLETSAPRNLPFYERLGFTVTADVEVPEGPRTWCMTRKPGA
Turning to B2, the “NFAT-GFP ASSAY Positive Cell lines: HEL” value was “(+), HEL (+)” and the “NFAT-GFP ASSAY Positive Cell lines: RAJI” value is “RAJI (+), NALM6”. Further, the “NFAT-GFP ASSAY Positive Cell lines: NALM6” value (SIR-expressing Jurkat-NFAT-GFP cells cocultured with NALM6) is reported as “(+), HEL (+)”.

B3: 040716-G02 (protein)
chain: MALPVTALLLPLALLLHAARPDEIVLTQSPATLSLSPGERATLSCSASSSVSYMHWYQQKPGQAPRLLIYDTSKLASGIPARFSGSGSGTDFTLTISSLEPEDVAVYYCFQGSVYPFTFGQGTKLEIKRGGGGSGGGGSGGGGSQVQLQESGPGLVKPSQTLSLTCTVSGGSISTSGMGVGWIRQHPGKGLEWIGHIWWDDDKRYNPALKSRVTISVDTSKNQFSLKLSSVTAADTAVYYCARMELWSYYFDYWGQGTLVTVSSLEGKPIPNPLLGLDSTGSGEDLKNVFPPEVAVFEPSKAEIAHTQKATLVCLATGFYPDHVELSWWVNGKEVHSGVCTDPQPLKEQPALNDSRYCLSSRLRVSATFWQNPRNHFRCQVQFYGLSENDEWTQDRAKPVTQIVSAEAWGRADCGITSASYHQGVLSATILYEILLGKATLYAVLVSALVLMAMVKRKDSRGRAKRSGSGATNFSLLKQAGDVEENPGPTSTMALPVTALLLPLALLLHAARPDTIVLTQSPASLAVSLGQRATISCRASESVDSYGNSFMHWYQQKPGQPPKLLIYLASNLESGVPARFSGSGSRTDFTLTIDPVEADDAATYYCQQNNYDPWTFGGGTKLEIKGGGGSGGGGSGGGGSEVQLQQSGPELVKPGASVKMSCKASGYTFTSYVMHWVKQKPGQGLEWIGYINPYNDGTKYNEKFKGKATLTSDTSSSTAYMELNSLTSEDSAVYFCARPIYFDNDYFDYWGQGTTLKVSSTREQKLISEEDGSGIQNPDPAVYQLRDSKSSDKSVCLFTDFDSQTNVSQSKDSDVYITDKCVLDMRSMDFKSNSAVAWSNKSDFACANAFNNSIIPEDTFFPSSDVPCDVKLVEKSFETDTNLNFQNLSVIGFRILLLKVAGFNLLMTLRLWSSRAKRSGSGVKQTLNFDLLKLAGDVESNPGPSRGHMTEYKPTVRLATRDDVPRAVRTLAAAFADYPATRHTVDPDRHIERVTELQELFLTRVGLDIGKVWVADDGAAVAVWTTPESVEAGAVFAEIGPRMAELSGSRLAAQQQMEGLLAPHRPKEPAWFLATVGVSPDHQGKGLGSAVVLPGVEAAERAGVPAFLETSAPRNLPFYERLGFTVTADVEVPEGPRTWCMTRKPGA
modifications: Synthetic polynucleotide encoding a SIR
Consider B3, for which the “NFAT-GFP ASSAY Positive Cell lines: RAJI” value is recorded as “RAJI (+/−)”.
